For eleven molecules, koff, EC50 and IC50 results are on record in patent US20220387586A1 (Hoffmann-La Roche, published 2022).

Assay [1] concerns the target T1, human Fc tagged human Lag3 extra cellular domain (human, UniProt P18627 29-450, biotinylated in the epitope binning, the SA CAP SPR and the FACS competition assay).
T1 construct: In-house fusion; also called huLag3-Fc; biotinylated, huFc-tagged huLag3; not shown: human Fc tag
T1 sequence: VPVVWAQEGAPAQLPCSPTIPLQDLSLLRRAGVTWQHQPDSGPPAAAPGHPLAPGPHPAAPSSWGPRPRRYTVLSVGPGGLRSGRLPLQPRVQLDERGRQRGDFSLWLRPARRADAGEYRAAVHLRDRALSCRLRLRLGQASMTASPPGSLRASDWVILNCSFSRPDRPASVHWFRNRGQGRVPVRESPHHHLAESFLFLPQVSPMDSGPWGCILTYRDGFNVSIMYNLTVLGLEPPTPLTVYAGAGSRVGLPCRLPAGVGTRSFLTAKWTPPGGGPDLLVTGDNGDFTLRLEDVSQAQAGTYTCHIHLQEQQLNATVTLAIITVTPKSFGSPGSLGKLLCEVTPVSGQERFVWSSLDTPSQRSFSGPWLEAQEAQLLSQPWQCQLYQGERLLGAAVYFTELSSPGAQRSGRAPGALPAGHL
Briefly: SPR (Biacore T200), huLag3-Fc captured, antibody Fab fragment as analyte, 25 °C. Here is the method: Therefore two flow cells of a C1 biosensor chip were prepared in a Biacore T200 by immobilizing neutravidin, diluted to 25 μg/ml in acetate buffer pH 4.5, onto it using the ‘immobilization wizard’. […] Then, CaptureSelect™ Biotin Anti-IgG-Fc (Human) Conjugate was bound to the neutravidin, using a 20 μg/ml dilution in running buffer (HBS-EP+, GE Healthcare).
The method itself consisted of four commands per cycle. […] Second command: sample injection for 120s followed by a 1200s long dissociation at a flow speed of 30 μl/min. Third and fourth command: regeneration by injecting Glycine-HCl pH 1.5 for 30 seconds.
(In general: SPR reads the build-up and loss of mass on a sensor chip optically.)

Assay [2] deals with T2, biotinylated PD1-ECD-AviHis (human, UniProt Q15116 25-170, biotinylated).
T2 construct: also called huPD1; hu PD1; not shown: Avi-His tag
Nature of the assay: ELISA on coated biotinylated PD1-ECD-AviHis. On the procedure: After washing (3×90 μl/well with PBST-buffer) 25 μl/well goat-anti-human H+L-POD (JIR, JIR109-036-088)/Sheep-anti-mouse-POD (GE Healthcare; NA9310) was added in 1:2000/1:1000 dilution and incubated at RT for 1 h on shaker. After washing (3×90 μl/well with PBST-buffer) 25 μl/well TMB substrate (Roche Catalogue No. 11835033001) was added and incubated until OD 2-3. Measurement took place at 370/492 nm.
Background: An ELISA detects its analyte on a solid surface through an enzyme-linked reagent.

Assay [3] deals with T3, biotinylated cynoPD1-ECD-Biotin (cynomolgus, UniProt B0LAJ3 25-170, biotinylated; the site and any Avi or His tag are not stated in the passages shown).
T3 construct: also called cyPD1
Briefly: ELISA on coated cynoPD1-ECD-Biotin. On the procedure:
After washing (3×90 μl/well with PBST-buffer) 25 μl/well goat-anti-human H+L-POD (JIR, JIR109-036-088) was added in 1:1000 dilution and incubated at RT for 1 h on shaker. After washing (3×90 μl/well with PBST-buffer) 25 μl/well TMB substrate (Roche, 11835033001) was added and incubated until OD 2-3. Measurement took place at 370/492 nm.

The target in assay [4] is T2, biotinylated PD1-ECD-AviHis. Nature of the assay: PD-L2 replacing ELISA on coated PD1-ECD-AviHis; competitor PD-L2 Fc chimera. On the procedure:
After washing (3×90 μl/well with PBST-buffer) 25 μl/well goat-anti-human H+L-POD (JIR, 109-036-088) was added in 1:2000 dilution and incubated at RT for 1 h on shaker. After washing (3×90 μl/well with PBST-buffer) 25 μl/well TMB (tetramethylbenzidine) substrate (Roche, #11835033001) was added and incubated until OD 2-3. Measurement took place at 370/492 nm.

The target is the same in assay [5]. Briefly: PD-L1 replacing ELISA on coated PD1-ECD-AviHis; competitor PD-L1 Fc chimera. Here is the method: After washing (3×90 μl/well with PBST-buffer) 25 μl/well goat-anti-human H+L-POD (JIR, 109-036-088) was added in 1:1000 dilution and incubated at RT for 1 h on shaker. After washing (3×90 μl/well with PBST-buffer) 25 μl/well TMB substrate (Roche, 11835033001) was added and incubated until OD 2-3. Measurement took place at 370/492 nm.

T2 sequence (Q15116 25-170): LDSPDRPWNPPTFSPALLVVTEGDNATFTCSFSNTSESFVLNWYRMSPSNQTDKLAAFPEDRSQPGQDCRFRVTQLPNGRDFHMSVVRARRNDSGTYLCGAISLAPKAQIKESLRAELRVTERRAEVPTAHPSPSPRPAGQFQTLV
T3 sequence (B0LAJ3 entry or part of it limits assumed): as the sequence (Q15116 25-170) above, with D2E, P10A, V19L, T35A, Q75R, T144A counted along it

B1: aLAG3(0411) Fab fragment (Fab, V domains shown)
VH: EVHLLESGGGLVQPGGSLRLSCAASGFIVDDYTMNWVRQAPGKGLEWVSVISWDGGATYYADSVKGRFTISRDDFKNTLYLQMNSLRAEDTAVYYCAKGLTDDTLYGSDYWGQGTLVTVSS
VL: DIQMTQSPSSLSASVGDRVTITCRASQSIVSYLNWYQQKPGKAPKLLIYASSSLQSGVPSRFSGSGSGTDFTLTISSLQPEDFATYYCQQTYSTPLTFGGGTKVEIK
notes: also called aLAG3 (411)
On to B1, for which the koff (as a rule, the rate constant with which the complex falls apart) in assay [1] was found to be 3.87e-05 s⁻¹.

B2: PD1-0073 (antibody, V domains shown)
VH: EVKLVESGGGLVKPGGSLKLSCAASGFTFSNYGMSWIRQTPEKGLEWVATISGGGRDTYYPDSVKGRFTISRDNVKNNLYLQMSSLRSEDTAFYYCASYYYGIDYWGQGTSVTVSS
VL: DIVMTQPHKFMSTSVGDRVRITCKASQDVTTAVAWYQQKPGQSPKLLIYWASTRHTGVPDRFTGSGSGTEFTLTISSVQAEDLALYYCQQHYSIPWTFGGGTKLEIK
B2: the EC50 (commonly the concentration that produces a half-maximal response) is 0.0151 µg/mL in assay [2] and 0.0083 µg/mL in assay [3]. For the same molecule, the IC50 (usually the concentration that inhibits the measured activity by half) in assay [4] was 0.065 µg/mL; in assay [5] it was 0.124 µg/mL.

B3: aLAG3(0403) Fab fragment (Fab, V domains shown)
VH: EVQLLESGGGLVQPGGSLRLSCAASGFTFDDYTMHWVRQAPGKGLEWVSLVSWDGGGTYYTNSVKGRFTISRDNSKNTLYLQMNSLRAEDTAVYFCAKAITDTSLYGYDYWGQGILVTVSS
VL: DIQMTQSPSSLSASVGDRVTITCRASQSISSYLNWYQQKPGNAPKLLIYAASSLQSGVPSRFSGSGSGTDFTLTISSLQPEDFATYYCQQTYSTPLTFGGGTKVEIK
Molecule B3 had a koff in assay [1] of 5e-06 s⁻¹.

B4: PD1-0050 (antibody, V domains shown)
VH: DVQLQESGPGLVKPSQSLSLTCTVTGYSITSDYAWNWIRQFPGNKLEWMGYITYTGRTSYNPSLKSRISITRDTSKNQFFLQLNSVTTEDTATYYCAREMDYYGSTLDYWGQGTTLTVSS
VL: KIVLTQSPASLAVSLRQRATISCRASESVDRYGNSFIHWYQQKPGQPPKVLIYRASNLESGFPARFSGSGSRTDFTLTIDPVEADDAATYYCQQNNEDPYTFGSGTKLEIK
As for B4, the EC50 in assay [2] worked out at 0.0179 µg/mL; in assay [3], 0.0098 µg/mL. The IC50 amounted to 0.034 µg/mL in assay [4] and 0.128 µg/mL in assay [5].

B5: PD1-0098 (antibody, V domains shown)
VH: DVQLQESGPGLVKPSQSLSLTCTVTGYSITSDYAWNWIRQFPGDKLEWLGYITYSGFTNYNPSLKSRISISRDTSKNQFFLQLNSVATEDTATYYCARWHGSAPWYFDYWGRGTTLTVSS
VL: DVLMTQTPLSLPVSLGDQASISCRSSQNIVHSDGNTYLEWYLQKPGQSPNLLIYKVSRRFSGVPDRFSGSGSGTDFTLKISRVEAEDLGVYYCFQGSHFPLTFGAGTKLELK
notes: Mouse hybridoma antibody
Take B5: the EC50 is 0.0508 µg/mL in assay [2] and 0.0546 µg/mL in assay [3]. Further, the IC50 in assay [4] came out at 0.045 µg/mL; in assay [5], 0.174 µg/mL.

B6: PD1-0102 (antibody, V domains shown)
VH: DVQLQESGPDLVKPSQSLSLTCTVTGYSITSGYSWHWIRQFPGNKLEWMGFIHSSGDTNYNPSLKSRISFTRDTSKNQFFLQLSSLTDEDTATYYCATYRNWYFDVWGAGTTVTVSS
VL: DIVMTQSPSSLTVTAGEKVTMRCKSSQSLLNSGTQKNYLTWYQQKPGQPPKLLIYWASTRESGVPNRFTGSGSGTDFTLTISSVQAEDLSVYYCQSDYTFPLTFGGGTKLELK
For the molecule B6, the EC50 in assay [2] was 0.0342 µg/mL; in assay [3] it was 0.0527 µg/mL. Further, the IC50 is 0.14 µg/mL in assay [4] and above 35.5 µg/mL in assay [5].

B7: MDX-26H10 (26H10) Fab fragment (Fab, V domains shown)
VH: QVQLVESGGGVVQPGRSLRLSCAASGFTFSSYGMHWVRQAPGKGLEWVAVIWYDGSNKYYADSVKGRFTISRDNSKNTLYLQMNSLRAEDTAVYYCAREWAVASWDYGMDVWGQGTTVTVSS
VL: not shown
The molecule B7 registered a koff in assay [1] of 0.000399 s⁻¹.

B8: MDX-25F7 (25F7) Fab fragment (Fab, V domains shown)
VH: QVQLQQWGAGLLKPSETLSLTCAVYGGSFSDYYWNWIRQPPGKGLEWIGEINHNGNTNSNPSLKSRVTLSLDTSKNQFSLKLRSVTAADTAVYYCAFGYSDYEYNWFDPWGQGTLVTVSS
VL: EIVLTQSPATLSLSPGERATLSCRASQSISSYLAWYQQKPGQAPRLLIYDASNRATGIPARFSGSGSGTDFTLTISSLEPEDFAVYYCQQRSNWPLTFGQGTNLEIK
Molecule B8 returned a koff in assay [1] of 0.000386 s⁻¹.

B9: PD1-0103 (antibody, V domains shown)
VH: EVILVESGGGLVKPGGSLKLSCAASGFSFSSYTMSWVRQTPEKRLDWVATISGGGRDIYYPDSVKGRFTISRDNAKNTLYLEMSSLMSEDTALYYCVLLTGRVYFALDSWGQGTSVTVSS
VL: KIVLTQSPASLPVSLGQRATISCRASESVDTSDNSFIHWYQQRPGQSPKLLIYRSSTLESGVPARFSGSGSRTDFTLTIDPVEADDVATYYCQQNYDVPWTFGGGTKLEIK
notes: Mouse hybridoma antibody; also called murine anti-PD1 antibody PD1-0103
As for B9, the EC50 in assay [2] is 0.0337 µg/mL; in assay [3] it was 0.0369 µg/mL. Moreover, the IC50 came to 0.051 µg/mL in assay [4] and 0.182 µg/mL in assay [5].

B10: aLAG3(0417) Fab fragment (Fab, V domains shown)
VH: EVQLVESGGGLVQPGGSLRLACAASGFTFSDYAMSWVRQAPGKGLEWVSGIDNSGYYTYYTDSVKGRFTISRDDVKNTLYLQMNSLRAEDTAVYLCTKTHSGLIVNDAFDIWGQGTMVTVSS
VL: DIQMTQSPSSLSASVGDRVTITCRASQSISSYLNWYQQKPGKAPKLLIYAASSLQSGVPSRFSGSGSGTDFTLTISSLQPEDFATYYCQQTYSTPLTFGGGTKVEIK
notes: also called aLAG3 (417)
In assay [1], B10 displayed a koff of 9.48e-05 s⁻¹.

B11: PD1-0069 (antibody, V domains shown)
VH: QVQLQQSGPELVRPGVSVKISCKGSGYTFTDYAMHWVKQSHARTLEWIGVISTYSGDTNYNQKFKDKATMTVDKSSSTAYLELARMTSEDSAIYYCARLGITTGFAYWGQGTLVTVSA
VL: DIVLTQSPASLAVSLGQRATISCRASKGVSTSSYSFMHWYQQKPRQPPKLLIKYASYLESGVPARFSGSGSGTDFTLNIHPVEEEDAATYYCHHSREFPWTFGGGTKLEIK
notes: Mouse hybridoma antibody
Consider B11, for which the EC50 is 0.0457 µg/mL in assay [2] and 0.0227 µg/mL in assay [3]. For the same molecule, the IC50 in assay [4] was determined as 0.089 µg/mL; in assay [5] it was 0.225 µg/mL.
